Measured values: patent publication US20150351390A1, “COMPOSITIONS AND METHODS FOR AUXIN-ANALOG CONJUGATION” (PIONEER HI-BRED INTERNATIONAL, INC., priority 2012, published 2015)

Experiments:
[1] = LC-MS assay of GH3 conjugation of IAA with Asp or Glu; format: biochemical; settings: for kcat (hrs−1) IAA-Asp: conjugation of IAA with Asp by recombinant GH3 protein, IAA-Asp product by LC-MS; for kcat (hrs−1) IAA-Glu: conjugation of IAA with Glu by recombinant GH3 protein, IAA-Glu product by LC-MS
Method: (§1) To detect and monitor the formation of acyl conjugates with 2,4-D or dicamba, a sensitive LC-MS method was developed using the respective amino acid conjugate standards. […] The reaction was performed at 30° C., 105 rpm, for 3 hours in buffer containing 20 mM Tris-HCl (pH 8.0), 5 mM MgCl2, 5 mM auxin (IAA, 2,4-D or dicamba), 5 mM ATP, 5 mM Asp or Glu, 1 mM DTT and 44 to 164 μg/mL purified GH3 protein in 100 μL reaction. After 3 hours of reaction, 400 μL 100% MeOH was added to the reaction mixture for protein precipitation. The supernatant was diluted 20× in water and then analyzed by LC-MS (AB Sciex 4000 QTrap coupled with Shimadzu Nexera UHPLC) using a Phenomenex Luna 3 μm Phenyl-Hexyl (00B-4256-Y0) column. The concentration of the conjugates was calculated based on the standards. Kinetic parameters were estimated by fitting initial velocity values to the Michaelis-Menten equation.
(§2) The GH3 superfamily conjugase activity analysis of IAA, 2,4-D or dicamba with Asp or Glu was done using LC-MS to analyze the final conjugate products as described in Example 1. Protein sequences of GH3 homologs (Table 3) were obtained from public databases (NCBI, http://www.ncbi.nlm.nih.gov/) by Blast analysis of AtGH3.17 protein sequence (accession # Q9FZ87). Coding sequences were designed for optimal expression in E. coli based on the protein sequences and synthesized. Synthesized coding sequences along with N-term his-tag coding sequences were cloned into a pET24a-based E. coli expression vector. The E. coli expression vectors were transformed into OverExpress C41(DE3) cells (Lucigen) for protein expression. Recombinant E. coli strains were inoculated into 5 ml LB media supplemented with 40 mg/L kanamycin and cultured overnight at 37° C. The overnight culture (0.5 mL) was inoculated into 50 mL LB medium plus 40 mg/L kanamycin and grown at 30° C. until OD600 reached 0.6. The cultures were induced with 0.2 mM IPTG at 16° C., 230 rpm overnight. Cells were harvested by centrifugation at 7,000 rpm for 10 mins. The cell pellet from 50 mL of cell culture was frozen and thawed twice and then lysed in 800 μL lysis buffer A (150 mM NaCl, 50 mM Tris-HCl pH 8.0, 5 mM MgCl2, 10% glycerol) plus 20 mM imidazole, 1 mM DTT, 0.2 mg/ml lysozyme, 1/200 protease inhibitor cocktail (EMD set3, EDTA free) and 1/2000 endonuclease. Lysate was then centrifuged at 13,000 rpm for 30 min at 4° C. Supernatant was loaded onto 200 μL Ni-NTA columns pre-equilibrated with buffer A with 20 mM imidazole at 4° C. Each column was then washed with (1) 2×800 μL of buffer A with 10 mM imidazole, (2) 2×800 μL of buffer A with 20 mM imidazole and (3) 2×200 μL of buffer A with 50 mM imidazole. Protein was eluted with 200 μL of buffer A with 250 mM imidazole. The concentration was measured by Bradford assay. Purified protein was used in conjugation reaction assays as described in example 1.

[2] = LC-MS assay of GH3 conjugation of 2,4-D with Asp or Glu; format: biochemical; settings: 5 mM 2,4-D substrate; for kcat (hrs−1) 2,4-D-Asp: conjugation of 2,4-D with Asp by recombinant GH3 protein, 2,4-D-Asp product by LC-MS; for kcat (hrs−1) 2,4-D-Glu: conjugation of 2,4-D with Glu by recombinant GH3 protein, 2,4-D-Glu product by LC-MS
Method: as §1, §2

B1: AtGH3-3: GH3 protein, accession O22190 (protein, listed as Arabidopsis thaliana)
chain: MTVDSALRSPMMHSPSTKDVKALRFIEEMTRNVDFVQKKVIREILSRNSDTEYLKRFGLKGFTDRKTFKTKVPVVIYDDLKPEIQRIANGDRSMILSSYPITEFLTSSGTSAGERKLMPTIDEDMDRRQLLYSLLMPVMNLYVPGLDKGKALYFLFVKTESKTPGGLPARPVLTSYYKSEQFKRRPNDPYNVYTSPNEAILCPDSSQSMYTQMLCGLLMRHEVLRLGAVFASGLLRAIGFLQTNWKELADDISTGTLSSRISDPAIKESMSKILTKPDQELADFITSVCGQDNSWEGIITKIWPNTKYLDVIVTGAMAQYIPMLEYYSGGLPMACTMYASSESYFGINLKPMCKPSEVSYTIMPNMAYFEFLPHHEVPTEKSELVELADVEVGKEYELVITTYAGLNRYRVGDILQVTGFYNSAPQFKFVRRKNVLLSIESDKTDEAELQSAVENASLLLGEQGTRVIEYTSYAETKTIPGHYVIYWELLVKDQTNPPNDEVMARCCLEMEESLNSVYRQSRVADKSIGPLEIRVVKNGTFEELMDYAISRGASINQYKVPRCVSFTPIMELLDSRVVSTHFSPALPHWSPERRR
With B1 the “kcat (hrs−1) IAA-Asp” value [1] was 0.000 h⁻¹, the “kcat (hrs−1) IAA-Glu” value [1] was 0.000 h⁻¹ and the “IAA conjugation activity with Asp or Glu” value ([1]; result in words) was “IAA-inactive”. For the same molecule, the “kcat (hrs−1) 2,4-D-Asp” value [2] was 0.000 h⁻¹ and the “kcat (hrs−1) 2,4-D-Glu” value [2] was 0.000 h⁻¹.

B2: AtGH3-17: GH3 protein, accession Q9FZ87 (protein, listed as Arabidopsis thaliana)
chain: MIPSYDPNDTEAGLKLLEDLTTNAEAIQQQVLHQILSQNSGTQYLRAFLDGEADKNQQSFKNKVPVVNYDDVKPFIQRIADGESSDIVSAQPITELLTSSGTSAGKPKLMPSTAEELERKTFFYSMLVPIMNKYVDGLDEGKGMYLLFIKPEIKTPSGLMARPVLTSYYKSQHFRNRPFNKYNVYTSPDQTILCQDSKQSMYCQLLCGLVQRSHVLRVGAVFASAFLRAVKFLEDHYKELCADIRTGTVTSWITDSSCRDSVLSILNGPNQELADEIESECAEKSWEGILRRIWPKAKYVEVIVTGSMAQYIPTLEFYSGGLPLVSTMYASSECYFGINLNPLCDPADVSYTLLPNMAYFEFLPVDDKSHEEIHFATHSNTDDDDDALKEDLIVNLVNVEVGQYYEIVITTFTGLYRYRVGDILKVTGFHNKAPQFRFVQRRNVVLSIDTDKTSEEDLLNAVTQAKLNHLQHPSSLLLTEYTSYADTSSIPGHYVLFWELKPRHSNDPPKLDDKTMEDCCSEVEDCLDYVYRRCRNRDKSIGPLEIRVVSLGTFDSLMDFCVSQGSSLNQYKTPRCVKSGGALEILDSRVIGRFFSKRVPQWEPLGLDS
In the case of B2, the “kcat, conjugation of IAA with Asp” value ([1]; IAA with Asp) is reported as 0.0144 s⁻¹, the “kcat, conjugation of IAA with Glu” value ([1]; IAA with Glu) is reported as 0.241 s⁻¹ and the “kcat (hrs−1) IAA-Asp” value [1] is reported as 51.838 h⁻¹. For the same molecule, the “kcat (hrs−1) IAA-Glu” value [1] was 867.723 h⁻¹, the “kcat (hrs−1) 2,4-D-Asp” value [2] was 0.424 h⁻¹ and the “kcat (hrs−1) 2,4-D-Glu” value [2] was 0.988 h⁻¹.

B3: OsGH3-10: GH3 protein, accession Q6ZLA7 (protein, listed as Oryza sativa)
chain: MAAKGISTIGAASRSLSSSLMAAAKEPDVENLRLIEELTSNVDAVQERVLAEILGRNADAEYLDKCGLDASDTDRATFRAKVPVASYDDLKPYVKRIANGDRSPILSTHPIIEFFTSSGTSAGERKLMPIVTDEMARREVLSSLATSVLNVYVPGLHTGKGLYFLFARSETKTPGGLTAQPALTSVYKSEHFKRAYAYTSPMAAILCEDASQSMYAQMLCGLCQRHDVLRVGAVFAAALVRAIRFLQLNWAQLAADIETGELNPRVTDPSDRECSRGDWTGIVTRLWPKTKCLNVVVTGVMAQYIPTLQYYSGGLPIVSGMYASSECFFGLNLRPLCGPSEVSYTIMPNTAYFEFLPVGEAVDASNLVELARVEDGREYEVVVTTYAGLNRYRVGDVLCVTGFHNAAPQFRFVRRQSVLLSIEADKTDEAELQRAVERASSALLRPRGASIVEYTSRACTERVPGHFSPALPHWTLAP
With B3 the “kcat (hrs−1) IAA-Asp” value [1] was 0.000 h⁻¹, the “kcat (hrs−1) IAA-Glu” value [1] was 0.000 h⁻¹ and the “IAA conjugation activity with Asp or Glu” value ([1]; result in words) was “IAA-inactive”. For the same molecule, the “kcat (hrs−1) 2,4-D-Asp” value [2] was 0.000 h⁻¹ and the “kcat (hrs−1) 2,4-D-Glu” value [2] was 0.000 h⁻¹.

B4: SbEES16535: GH3 protein, accession EES16535 (protein)
chain: MAHTPAMENSYVQVHHLATSMAIHTHKPFLAPPKHVHLAFHSPTSAPSRLLATTRSRPGLSQPAAMMAETDADKLRFIEEVTADVAAVQERVLAEILSRNADAEYLSTRCGGATDRATFRAKVPMVTYEDLQPYILRIAHGDRSPILSGSGYPVSELLTSSGAGDRKLIPVVDDDHDRHHRLHSLVGAVVNQYVPGLDKGSGLYFLFVKSETTTPGGLPARTILTRIFTSDGVWKLPYNPRRGLTSPAAAVVCEDTFQSMYTQMLCGLCHRHSVLRVGAAFASGVLRAIRFFQRNWPQLAADIDAGTITDRVTDHVLRQALAGVLTQPDPDLARVVRSEGSKADDGADMAGIIARLWPNTKYVHAVATGSMAHYVPALNHYSGGLPIVSTAYFSSECSVGINLRPMCDPSEVSYTVMPNMAYFEFLPTDDDDATASATSQLVELAGVEVGREYELVVTTYSGLCRYRVGDVLRVTGFHNTAPQLRFVRRRNAVLSVESDKTDEVELQRAVDRASAALLRPLGAAVADYTARTCAETVPGHYVVYWELQLPLGAADVVVDGGDVLDRCCLEMEEALSSVYRQSRVADGTVGPLEIRVVRPGTFEELADHAVARGASVGQYKVPRCVTAPPDIELLDSRVVSNHFSPALPKWVPG
modifications: Sorghum bicolor
For B4, the “kcat (hrs−1) IAA-Asp” value [1] was 0.000 h⁻¹, the “kcat (hrs−1) IAA-Glu” value [1] was 0.000 h⁻¹ and the “IAA conjugation activity with Asp or Glu” value ([1]; result in words) was “IAA-inactive”. For the same molecule, the “kcat (hrs−1) 2,4-D-Asp” value [2] was 0.000 h⁻¹ and the “kcat (hrs−1) 2,4-D-Glu” value [2] was 0.000 h⁻¹.

B5: AlGH3-12: GH3 protein, accession XP_002871561 (protein, listed as Arabidopsis lyrata)
chain: MKPISDINESFEKQLKYLTSDVKQIQDNLLEEIITPNTKTEYLQRFLIGRFDKDLFKKNVPIVTYEDIKPYLDRVVNGESSDVISARPITGFLLSSGTSGGAQKMMPWNNKYLDNLTFIYDLRMQVITKHVKGVEEGKGMMFLFTKQESMTPSGLPARVATSSYFKSDYFKHRPSNWYYSYTSPDEVILCPNNTQSLYCHLLCGLVQRDEVVRTGSIFASVMVRAIEVLKNSWEELCSNIRSGHLSNWVTDLGCQSSVSLVLGGPRPELADTIEEICNQKSWKGIVKRLWPNTKYIETVVTGSMGQYVPMLNYYCNDLPLVSTTYGSSETTFGINLDPLCKPEDVSYTFMPNMSYFEFIPMDGDNNDVVDLEDVKLGCTYEPVVTNFAGLYRMRVGDIVLVTGFYNNAPQFKFVRRENVVLSIDSDKTNEEDLFKAVSQAKLVLESSGLDLKDFTSYADTSTFPGHYVVYLEVDTKEGEEKKTAQFELDEEALSMCCLVMEESLDNVYKRCRFKDGSIGPLEIRVVRQGTFISLMDFFISQGASTGQYKTPRCIKSGKALQVLETCVVAKFFSS
In the case of B5, the “Conjugation of Glu to IAA” value ([1]; result in words) is reported as “can also conjugate Glu to IAA”.

B6: SmXP_002981880: GH3 protein, accession XP_002981880 (protein, listed as Selaginella moellendorffii)
chain: MAASAIAEFEDACKNAASIQEELLLGILRKNACCEYLQKYGSPLTVAAFKSQVPVIGYDDIRSDLERIAGGDRGQILCHDPITSFFTSSGTSSGKNKNIPATYENTVSVVKVLESSYAYKTNYFDLGKGRSVSLLYFKDLHATKSGLVFGPVTAHGIRSTRFRQVWRSSRTTPYEVLVAASDFRELTYCHLLCALLQRHEVEQVECMYAYSICEALRLFQNEYWEELCNDIRTASLSKTKVMDPKLRKAFERAGVFRSKCGNAMEADKIFKICSNESWSGILPLLFPKAKLVSAVVTGAMTHYVPTLSFYAGDQLPIVGQGFFSSEGGIGINIDPLSPPEDVIYTVTPRSLYYEFLPLGATEALSMHEVVIGELYEILVTNFAGLYRCRMGDVVQITSFFHGAPQMAYHHRKNAVMCINNETVDEQMLQNVVNKVSKDAGVEVLDFMIYGDPAAVPPSYTIFWELGNAKDYSKTQVLEQCCANVLKSFNPEHTRKGTDGLIDSFELVIVKKGTFERLMEEAVKNGASPAQYKTPRCVASSRILEALNSGRVHSYKSSAMSKVN
In the case of B6, the “kcat (hrs−1) IAA-Asp” value [1] is reported as 1.475 h⁻¹, the “kcat (hrs−1) IAA-Glu” value [1] is reported as 1.759 h⁻¹ and the “IAA conjugation activity with Asp or Glu” value ([1]; result in words) is reported as “can also conjugate IAA to Asp and Glu”. For the same molecule, the “kcat (hrs−1) 2,4-D-Asp” value [2] was 0.144 h⁻¹ and the “kcat (hrs−1) 2,4-D-Glu” value [2] was 0.739 h⁻¹.
